# Test: LogD7.4 lipophilicity measurements (1-octanol/DPBS)
# Format: physicochemical
# Conditions: 86Y-labeled tracer, 1-octanol/DPBS pH 7.4
# Procedure: Figure S49. Chromatographic analysis of [177Lu]Lu-PSMA-617 and its corresponding non-radioactive reference complex. Absorbance of non-radioactive samples was monitored at 254 nm.
# [161Tb]TbCl3 (9.34 µL, 4.0 mCi) and PSMA-617 (12.2 µL, 9.80 µM) were dissolved in a mixture of NaOAc buffer (20.0 µL, 1 M, pH 5.5), DMSO (20.0 µL) and water (38.4 µL). The resulting mixture was vortexed and heated at 80 °C for 20 minutes. Quantitative labeling was confirmed via radio-HPLC (Method D, Rt = 7.73 min – Absorbance monitored at 254 nm).
# Figure S50. Chromatographic analysis of [161Tb]Tb-PSMA-617 and its corresponding non-radioactive […]
# 4.3 LogD7.4 Lipophilicity Measurements pepa-pic2, mepa-pic2, pepa2-pic and pepa2-pic-PSMA were radiolabeled with [86Y]YCl3 and formulated in DPBS 1X pH 7.4 at a concentration of 25-29 µCi/mL. […] Samples were centrifuged for 5 min at 5000 rpm to separate (also on this page, place not known: 02468101214161820 Time (min) Normalized Absorbance (a.u) Normalized Counts (cps) 02468101214161820 Time (min) Normalized Absorbance (a.u) Normalized Counts (cps)) […]
# both layers. […] LogD7.4 values calculated according […]
# Female BALB/c mice were purchased from Jackson Laboratory. Biodistribution profiles of Y-86 labeled mepa-pic2, pepa-pic2 and […] were first evaluated in healthy naïve mice. […]
# Table S1. […] Values expressed as % ID/g. Error expressed as ± 1 SD for n = 4. […]
compound,measurement,value
"COCCOCCOCCOc1ccc(C#Cc2cc(CN3CCN(Cc4cccc(C(=O)O)n4)CCN(Cc4cc(SC[C@H](N)C(=O)NCCCCCC(=O)NCCCC[C@H](NC(=O)N[C@@H](CCC(=O)O)C(=O)O)C(=O)O)cc(C(=O)O)n4)CC3)nc(C(=O)O)c2)cc1 [[86Y]Y-pepa-pic2-C-Hex-KuE, metal not drawn]",logD7.4,−2.98
